Laboratory results from the supplement of paper PMC9112550, “Optimization of the antimicrobial peptide Bac7 by deep mutational scanning” (BMC Biology, 2022).

Tested on: Escherichia coli TOP10
Assay: shrunken log2 fold change of peptide-encoding DNA abundance (4.5 h post-induction vs induction); higher = less antimicrobial activity (less host growth inhibition)
Conditions: time post-induction: 4.5 h; library: site-saturation at positions 5, 18, 19, 20
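Note: peptides expressed intracellularly from a pBAD plasmid library in pooled LB shake-flask culture, induced with 0.3% L-arabinose, DNA abundance read by NGS, three biological replicates, DESeq2 with apeglm shrinkage.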

| Sequence | shrunken log2 fold change |
| --- | --- |
| RRIRRRPPRLPRPRPRPDWLPRP | 0.365 |
| RRIRLRPPRLPRPRPRPWDLPRP | -0.00277 |
| RRIRDRPPRLPRPRPRPYFFPRP | -0.287 |
| RRIRCRPPRLPRPRPRPKFSPRP | -0.0966 |
| RRIRRRPPRLPRPRPRPQIFPRP | -0.0198 |
| RRIRRRPPRLPRPRPRPTGYPRP | 0.246 |
| RRIRWRPPRLPRPRPRPYGCPRP | -0.189 |
| RRIRHRPPRLPRPRPRPQDWPRP | 0.0899 |
| RRIRFRPPRLPRPRPRPHELPRP | 0.0835 |
| RRIRMRPPRLPRPRPRPSFVPRP | -0.0144 |
| RRIRDRPPRLPRPRPRPGQMPRP | -0.0138 |
| RRIRGRPPRLPRPRPRPHHHPRP | -0.139 |
| RRIRGRPPRLPRPRPRPWGHPRP | 0.152 |
| RRIRCRPPRLPRPRPRPHPPPRP | 0.809 |
| RRIRPRPPRLPRPRPRPTHDPRP | 0.258 |
| RRIRMRPPRLPRPRPRPPYQPRP | 0.0406 |
| RRIRMRPPRLPRPRPRPADNPRP | 0.0259 |
| RRIRARPPRLPRPRPRPVKEPRP | -0.0493 |
| RRIRIRPPRLPRPRPRPYLFPRP | -0.376 |
| RRIRGRPPRLPRPRPRPTHCPRP | 0.433 |
| RRIRLRPPRLPRPRPRPYWPPRP | -0.518 |
| RRIRDRPPRLPRPRPRPWVAPRP | -0.0114 |
| RRIRERPPRLPRPRPRPISRPRP | -0.0122 |
| RRIRHRPPRLPRPRPRPHNRPRP | -0.0976 |
| RRIRIRPPRLPRPRPRPWYVPRP | -0.247 |

| Sequence | shrunken log2 fold change |
| --- | --- |
| RRIRQRPPRLPRPRPRPKTGPRP | -0.151 |
| RRIRLRPPRLPRPRPRPKINPRP | -0.396 |
| RRIRWRPPRLPRPRPRPTDWPRP | 0.581 |
| RRIRYRPPRLPRPRPRPKCMPRP | -0.841 |
| RRIRGRPPRLPRPRPRPGARPRP | 0.953 |
| RRIRTRPPRLPRPRPRPNILPRP | -0.484 |
| RRIRQRPPRLPRPRPRPVSIPRP | 0.0429 |
| RRIRKRPPRLPRPRPRPTYDPRP | -0.0829 |
| RRIRIRPPRLPRPRPRPQMNPRP | -0.887 |
| RRIRTRPPRLPRPRPRPAWEPRP | 0.174 |
| RRIRHRPPRLPRPRPRPELAPRP | -0.0268 |
| RRIRWRPPRLPRPRPRPLQQPRP | 0.115 |
| RRIRNRPPRLPRPRPRPIIVPRP | -0.286 |
| RRIRDRPPRLPRPRPRPKSPPRP | 0.0198 |
| RRIRLRPPRLPRPRPRPKWDPRP | 0.184 |
| RRIRPRPPRLPRPRPRPRHNPRP | -0.0793 |
| RRIRKRPPRLPRPRPRPDICPRP | 0.0913 |
| RRIRARPPRLPRPRPRPMIRPRP | -0.388 |
| RRIRTRPPRLPRPRPRPTYAPRP | -0.0854 |
| RRIRSRPPRLPRPRPRPTRNPRP | 0.29 |
| RRIRRRPPRLPRPRPRPFSCPRP | 0.082 |
| RRIRHRPPRLPRPRPRPEMRPRP | 0.122 |
| RRIRWRPPRLPRPRPRPEGSPRP | 0.754 |
| RRIRIRPPRLPRPRPRPYAVPRP | -0.937 |
| RRIRWRPPRLPRPRPRPYMYPRP | -0.848 |

| Sequence | shrunken log2 fold change |
| --- | --- |
| RRIRIRPPRLPRPRPRPYSAPRP | -0.221 |
| RRIRPRPPRLPRPRPRPTFMPRP | 0.0861 |
| RRIRPRPPRLPRPRPRPTPFPRP | 0.269 |
| RRIRMRPPRLPRPRPRPRDIPRP | -0.0288 |
| RRIRARPPRLPRPRPRPFKAPRP | 0.0354 |
| RRIRSRPPRLPRPRPRPNMFPRP | -0.289 |
| RRIRQRPPRLPRPRPRPYTYPRP | -0.157 |
| RRIRDRPPRLPRPRPRPHVNPRP | 0.000411 |
| RRIRSRPPRLPRPRPRPPRMPRP | 0.274 |
| RRIRGRPPRLPRPRPRPHTCPRP | 0.104 |
| RRIRVRPPRLPRPRPRPGKVPRP | -0.272 |
| RRIRSRPPRLPRPRPRPSNYPRP | -0.869 |
| RRIRARPPRLPRPRPRPYEWPRP | -0.0646 |
| RRIRYRPPRLPRPRPRPVGVPRP | -0.0394 |
| RRIRHRPPRLPRPRPRPSHMPRP | -0.856 |
| RRIRKRPPRLPRPRPRPFCDPRP | 0.144 |
| RRIRNRPPRLPRPRPRPCPYPRP | -0.0128 |
| RRIRRRPPRLPRPRPRPYWEPRP | 0.0331 |
| RRIRKRPPRLPRPRPRPNTDPRP | -0.261 |
| RRIRIRPPRLPRPRPRPMDYPRP | -0.00141 |
| RRIRSRPPRLPRPRPRPKFDPRP | -0.081 |
| RRIRGRPPRLPRPRPRPYGPPRP | 0.0138 |
| RRIRTRPPRLPRPRPRPDDFPRP | 0.0516 |
| RRIRKRPPRLPRPRPRPILIPRP | 0.0193 |
| RRIRCRPPRLPRPRPRPNSAPRP | 0.0338 |

| Sequence | shrunken log2 fold change |
| --- | --- |
| RRIRPRPPRLPRPRPRPSDGPRP | -0.26 |
| RRIRNRPPRLPRPRPRPFCNPRP | -0.126 |
| RRIRFRPPRLPRPRPRPTTQPRP | 0.376 |
| RRIRKRPPRLPRPRPRPCGNPRP | 0.0169 |
| RRIRNRPPRLPRPRPRPNYFPRP | 0.169 |
| RRIRKRPPRLPRPRPRPYFAPRP | -0.0674 |
| RRIRCRPPRLPRPRPRPFYYPRP | -0.97 |
| RRIRSRPPRLPRPRPRPNNKPRP | -0.559 |
| RRIRSRPPRLPRPRPRPEPDPRP | 0.953 |
| RRIRARPPRLPRPRPRPLIIPRP | -0.415 |
| RRIRKRPPRLPRPRPRPWQDPRP | -0.0361 |
| RRIRARPPRLPRPRPRPMTEPRP | 0.356 |
| RRIRMRPPRLPRPRPRPWDQPRP | 0.0532 |
| RRIRMRPPRLPRPRPRPYDSPRP | 0.00275 |
| RRIRSRPPRLPRPRPRPPSQPRP | 0.235 |
| RRIRDRPPRLPRPRPRPYTFPRP | -0.0443 |
| RRIRIRPPRLPRPRPRPDNYPRP | -0.199 |
| RRIRNRPPRLPRPRPRPHLRPRP | -0.447 |
| RRIRIRPPRLPRPRPRPFYFPRP | -0.448 |
| RRIRTRPPRLPRPRPRPGPHPRP | 0.124 |
| RRIRARPPRLPRPRPRPTELPRP | 0.595 |
| RRIRIRPPRLPRPRPRPWFTPRP | -0.563 |
| RRIRSRPPRLPRPRPRPSPHPRP | -0.194 |
| RRIRTRPPRLPRPRPRPVFFPRP | 0.0831 |
| RRIRPRPPRLPRPRPRPRQNPRP | 0.463 |

| Sequence | shrunken log2 fold change |
| --- | --- |
| RRIRHRPPRLPRPRPRPTKPPRP | 0.0121 |
| RRIRPRPPRLPRPRPRPKIMPRP | -0.437 |
| RRIRHRPPRLPRPRPRPKQGPRP | -0.0386 |
| RRIRFRPPRLPRPRPRPQNEPRP | -0.603 |
| RRIRRRPPRLPRPRPRPRMKPRP | 0.309 |
| RRIRKRPPRLPRPRPRPRQYPRP | 0.0199 |
| RRIRCRPPRLPRPRPRPPMCPRP | -0.23 |
| RRIRPRPPRLPRPRPRPEAHPRP | 0.0215 |
| RRIRTRPPRLPRPRPRPQKFPRP | -0.632 |
| RRIRNRPPRLPRPRPRPLNWPRP | -0.269 |
| RRIRRRPPRLPRPRPRPTANPRP | 0.589 |
| RRIRHRPPRLPRPRPRPGVDPRP | -0.213 |
| RRIRTRPPRLPRPRPRPCSVPRP | 0.0123 |
| RRIRFRPPRLPRPRPRPMKHPRP | -0.149 |
| RRIRPRPPRLPRPRPRPCISPRP | -0.0753 |
| RRIRCRPPRLPRPRPRPVRHPRP | 0.403 |
| RRIRARPPRLPRPRPRPTRGPRP | 0.301 |
| RRIRNRPPRLPRPRPRPAFVPRP | 0.154 |
| RRIRQRPPRLPRPRPRPEAPPRP | 0.6 |
| RRIRWRPPRLPRPRPRPHMKPRP | -0.204 |
| RRIRQRPPRLPRPRPRPGAYPRP | -0.506 |
| RRIRSRPPRLPRPRPRPQEAPRP | -0.0452 |
| RRIRKRPPRLPRPRPRPRPRPRP | 1.01 |
| RRIRFRPPRLPRPRPRPQIPPRP | -0.475 |
| RRIRNRPPRLPRPRPRPMMLPRP | -0.0295 |

| Sequence | shrunken log2 fold change |
| --- | --- |
| RRIRWRPPRLPRPRPRPSMRPRP | 0.707 |
| RRIRHRPPRLPRPRPRPDYVPRP | -0.165 |
| RRIRVRPPRLPRPRPRPLFQPRP | -0.0438 |
| RRIRKRPPRLPRPRPRPMHAPRP | 0.00395 |
| RRIRQRPPRLPRPRPRPTYTPRP | -0.346 |
| RRIRQRPPRLPRPRPRPYFMPRP | -0.89 |
| RRIRARPPRLPRPRPRPFQRPRP | -0.0439 |
| RRIRKRPPRLPRPRPRPSPPPRP | 0.305 |
| RRIRLRPPRLPRPRPRPEDDPRP | 0.0572 |
| RRIRHRPPRLPRPRPRPTIEPRP | -0.0518 |
| RRIRFRPPRLPRPRPRPHWVPRP | -0.523 |
| RRIRFRPPRLPRPRPRPPFRPRP | 1.84 |
| RRIRWRPPRLPRPRPRPYTPPRP | -0.72 |
| RRIRIRPPRLPRPRPRPMPAPRP | 0.0451 |
| RRIRNRPPRLPRPRPRPGKIPRP | -0.284 |
| RRIRERPPRLPRPRPRPNNYPRP | -0.821 |
| RRIRYRPPRLPRPRPRPPSTPRP | -0.294 |
| RRIRARPPRLPRPRPRPYTHPRP | -0.373 |
| RRIRARPPRLPRPRPRPQNVPRP | -0.035 |
| RRIRPRPPRLPRPRPRPHGGPRP | 0.216 |
| RRIRYRPPRLPRPRPRPCMLPRP | -1.02 |
| RRIRIRPPRLPRPRPRPLVSPRP | -0.244 |
| RRIRWRPPRLPRPRPRPFKEPRP | -0.139 |
| RRIRARPPRLPRPRPRPEICPRP | 1.01 |
| RRIRSRPPRLPRPRPRPIRYPRP | 0.31 |
